Measured values from article PMC12487280.

Assays:
[1] = Western blot of UBAP2L, ccRCC cells; conditions: glycan lost; control: shCtrl / untreated
[2] = CHX-chase, Western blot, ccRCC cells; conditions: glycan lost; control: WT / shCtrl / untreated
[3] = UBAP2L/G3BP1 immunostaining, granules per cell; conditions: glycan lost; control: sunitinib without OSMI-1
[4] = CCK-8 dose response, 786-O and Caki-1; conditions: glycan lost; control: UBAP2L-WT overexpression
[5] = UBAP2L/G3BP1 immunostaining after sunitinib; conditions: glycan lost; control: UBAP2L-WT overexpression

B1: UBAP2L: OSMI-1 (protein)
parent chain: MMTSVGTNRARGNWEQPQNQNQTQHKQRPQATAEQIRLAQMISDHNDADFEEKVKQLIDITGKNQDECVIALHDCNGDVNRAINVLLEGNPDTHSWEMVGKKKGVSGQKDGGQTESNEEGKENRDRDRDYSRRRGGPPRRGRGASRGREFRGQENGLDGTKSGGPSGRGTERGRRGRGRGRGGSGRRGGRFSAQGMGTFNPADYAEPANTDDNYGNSSGNTWNNTGHFEPDDGTSAWRTATEEWGTEDWNEDLSETKIFTASNVSSVPLPAENVTITAGQRIDLAVLLGKTPSTMENDSSNLDPSQAPSLAQPLVFSNSKQTAISQPASGNTFSHHSMVSMLGKGFGDVGEAKGGSTTGSQFLEQFKTAQALAQLAAQHSQSGSTTTSSWDMGSTTQSPSLVQYDLKNPSDSAVHSPFTKRQAFTPSSTMMEVFLQEKSPAVATSTAAPPPPSSPLPSKSTSAPQMSPGSSDNQSSSPQPAQQKLKQQKKKASLTSKIPALAVEMPGSADISGLNLQFGALQFGSEPVLSDYESTPTTSASSSQAPSSLYTSTASESSSTISSNQSQESGYQSGPIQSTTYTSQNNAQGPLYEQRSTQTRRYPSSISSSPQKDLTQAKNGFSSVQATQLQTTQSVEGATGSAVKSDSPSTSSIPPLNETVSAASLLTTTNQHSSSLGGLSHSEEIPNTTTTQHSSTLSTQQNTLSSSTSSGRTSTSTLLHTSVESEANLHSSSSTFSTTSSTVSAPPPVVSVSSSLNSGSSLGLSLGSNSTVTASTRSSVATTSGKAPPNLPPGVPPLLPNPYIMAPGLLHAYPPQVYGYDDLQMLQTRFPLDYYSIPFPTPTTPLTGRDGSLASNPYSGDLTKFGRGDASSPAPATTLAQPQQNQTQTHHTTQQTFLNPALPPGYSYTSLPYYTGVPGLPSTFQYGPAVFPVAPTSSKQHGVNVSVNASATPFQQPSGYGSHGYNTGVSVTSSNTGVPDISGSVYSKTQQSFEKQGFHSGTPAASFNLPSALGSGGPINPATAAAYPPAPFMHILTPHQQPHSQILHHHLQQDGQTGSGQRSQTSSIPQKPQTNKSAYNSYSWGAN
decreases: expression_or_secretion [1] | degradation_or_half_life [2] | other: stress granule formation [3]

B2: UBAP2L: S305A (protein)
parent chain: B1 parent chain
decreases: degradation_or_half_life [2] | other: sunitinib resistance of cells, IC50 [4] | other: stress granule formation [5]
